In general, EC50 refers to the midpoint of the concentration-response curve. Low values mean an effect from little substance, high ones a need for much substance. By IC50 is commonly meant the concentration that gives 50% inhibition. Read a low IC50 as greater potency.

Data on seven molecules can be found in patent US20230322953A1 (HARBOUR BIOMED SHANGHAI, published 2023).

The target in assay [1] is T1, human CTLA4 on cells (CHO-K1/hCTLA4; HEK293/hCTLA4; 293F-hCTLA4) (human, UniProt P16410 36-223).
T1 construct: whole, on cells
T1 sequence (P16410 36-223): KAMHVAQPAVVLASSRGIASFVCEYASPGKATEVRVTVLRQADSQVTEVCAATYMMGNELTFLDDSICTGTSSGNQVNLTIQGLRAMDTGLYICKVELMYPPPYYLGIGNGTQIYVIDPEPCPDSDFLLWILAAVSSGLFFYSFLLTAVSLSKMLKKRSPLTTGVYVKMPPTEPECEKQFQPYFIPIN
Nature of the assay: FACS, CHO-K1/hCTLA4 cells (Test 2).

The target of assay [2] is T2, human PD-L1 on cells (CHO-K1/hPDL1; MDA-MB-231) (human, UniProt Q9NZQ7 19-290).
T2 construct: whole, on cells
T2 sequence (Q9NZQ7 19-290): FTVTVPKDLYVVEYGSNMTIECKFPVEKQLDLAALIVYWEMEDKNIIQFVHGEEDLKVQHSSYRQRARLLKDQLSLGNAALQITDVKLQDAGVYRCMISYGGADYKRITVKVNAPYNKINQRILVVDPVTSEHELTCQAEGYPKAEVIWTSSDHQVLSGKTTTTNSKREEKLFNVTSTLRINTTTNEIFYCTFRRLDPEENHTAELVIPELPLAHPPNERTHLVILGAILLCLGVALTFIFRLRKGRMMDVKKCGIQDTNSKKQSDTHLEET
Nature of the assay: FACS, CHO-K1/hPDL1 cells (Experiment 2).

Assay [3] addresses T2, human PD-L1 on cells (CHO-K1/hPDL1; …). Nature of the assay: competition FACS: biotinylated PD-1 to CHO-K1/hPDL1 cells.
The target in assay [4] is T1, human CTLA4 on cells (CHO-K1/hCTLA4; …). Nature of the assay: competition FACS: biotinylated B7-1-Fc to CHO-K1/hCTLA4 cells (Test 2).
Assay [5] addresses T2, human PD-L1 on cells (CHO-K1/hPDL1; …). As to the kind of experiment: competition FACS: biotinylated PD-1 to CHO-K1/hPDL1 cells (Experiment 2).
Assay [6] shares this target. As to the kind of experiment: FACS, MDA-MB-231 cells. On the technique in general: A flow cytometer gives signals particle by particle.
In assay [7] the target is T1, human CTLA4 on cells (CHO-K1/hCTLA4; …). As to the kind of experiment: FACS, HEK293/hCTLA4 cells.

B1: PR001574 (bispecific antibody, human IgG1, kappa)
chain: EVQLVESGGGLIQPGGSLRLSCAVSGFTVSKNYMSWVRQAPGKGLEWVSVVYSGGSKTYADSVKGRFTISRDNSKNTLYLQMNSLRAEDTAVYYCARAVPHSPSSFDIWGQGTMVTVSSKLEPKSSDKTHTPPPPPRTDIQMTQSPSTLSASVGDRVTVTCRASQSIYIWLAWYQQKPGKAPNLLIYKASSLETGVPSRFSGSGSGTEFTLTISSLQPDDFATYYCQQYYGSSRTFGQGTKVEIKRTVAAPSVFIFPPSDEQLKSGTASVVCLLNNFYPREAKVQWKVDNALQSGNSQESVTEQDSKDSTYSLSSTLTLSKADYEKHKVYACEVTHQGLSSPVTKSFNRGEC
heavy: not shown
notes: PD-L1×CTLA4, structure 4
Take B1: the results for the EC50 in assay [1] and in assay [2] were 12 nM and 0.93 nM, respectively. Moreover, the results for the “Maximum MFI” value in assay [1] and in assay [2] were 677 MFI and 6710 MFI, respectively. In assay [3], the “fold poorer IC50 than the parent monoclonal antibody” value is 2 to 3 fold. The IC50 in assay [4] amounted to 4.49 nM; in assay [5], 0.88 nM. The figures for the “Maximum inhibition rate (%)” value in assay [4] and in assay [5] were 99.8% and 81.1%, respectively.

B2: PR001575 (bispecific antibody, human IgG1, kappa)
chain 1: EVQLVESGGGLIQPGGSLRLSCAVSGFTVSKNYMSWVRQAPGKGLEWVSVVYSGGSKTYADSVKGRFTISRDNSKNTLYLQMNSLRAEDTAVYYCARAVPHSPSSFDIWGQGTMVTVSSKLEPKSSDKTHTPPPPPRTDIQMTQSPSTLSASVGDRVTVTCRASQSIYIWLAWYQQKPGKAPNLLIYKASSLETGVPSRFSGSGSGTEFTLTISSLQPDDFATYYCQQYYGSSRTFGQGTKVEIKRTVAAPSVFIFPPSDEQLKSGTASVVCLLNNFYPREAKVQWKVDNALQSGNSQESVTEQDSKDSTYSLSSTLTLSKADYEKHKVYACEVTHQGLSSPVTKSFNRGEC
chain 2: not shown
notes: PD-L1×CTLA4, structure 9
Consider B2, for which, in assay [1], the EC50 worked out at 5.08 nM and the “Maximum MFI” value worked out at 415 MFI. For the same molecule, in assay [2], the midpoint of the response, the EC50, lay at 2.41 nM and the “Maximum MFI” value worked out at 5880 MFI. Further, the “fold poorer IC50 than the parent monoclonal antibody” value in assay [3] fell in the range of 4 to 6 fold. In assay [4], the IC50 is 3.79 nM and the “Maximum inhibition rate (%)” value was determined as 100%. Also, in assay [5], the IC50 was 1.74 nM and the “Maximum inhibition rate (%)” value worked out at 81.7%.

B3: PR001577 (bispecific antibody, human IgG1, kappa)
chain: EVQLVESGGGLIQPGGSLRLSCAVSGFTVSKNYMSWVRQAPGKGLEWVSVVYSGGSKTYADSVKGRFTISRDNSKNTLYLQMNSLRAEDTAVYYCARAVPHSPSSFDIWGQGTMVTVSSKLEPKSSDKTHTPPPPPRTDIQMTQSPSTLSASVGDRVTVTCRASQSIYIWLAWYQQKPGKAPNLLIYKASSLETGVPSRFSGSGSGTEFTLTISSLQPDDFATYYCQQYYGSSRTFGQGTKVEIKRTVAAPSVFIFPPSDEQLKSGTASVVCLLNNFYPREAKVQWKVDNALQSGNSQESVTEQDSKDSTYSLSSTLTLSKADYEKHKVYACEVTHQGLSSPVTKSFNRGEC
heavy: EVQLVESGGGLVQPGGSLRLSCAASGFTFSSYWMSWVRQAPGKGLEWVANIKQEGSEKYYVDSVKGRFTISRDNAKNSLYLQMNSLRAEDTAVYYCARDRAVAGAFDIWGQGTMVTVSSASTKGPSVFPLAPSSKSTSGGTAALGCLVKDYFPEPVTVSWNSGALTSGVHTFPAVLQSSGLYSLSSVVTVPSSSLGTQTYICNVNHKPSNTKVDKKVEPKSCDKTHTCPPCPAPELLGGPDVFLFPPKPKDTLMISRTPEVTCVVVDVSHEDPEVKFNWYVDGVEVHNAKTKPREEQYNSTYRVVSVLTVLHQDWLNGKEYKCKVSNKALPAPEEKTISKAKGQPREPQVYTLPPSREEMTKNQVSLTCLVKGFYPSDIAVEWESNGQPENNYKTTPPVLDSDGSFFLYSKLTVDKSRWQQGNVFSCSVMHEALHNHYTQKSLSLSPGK
notes: PD-L1×CTLA4, structure 4, Fc S239D, I332E
B3: in assay [1], the EC50 is 8.52 nM and the “Maximum MFI” value was 585 MFI. In addition, in assay [2], the midpoint of the response, the EC50, lay at 0.96 nM and the “Maximum MFI” value came out at 6610 MFI. Besides, the “fold poorer IC50 than the parent monoclonal antibody” value in assay [3] lay within 2 to 3 fold. In addition, in assay [4], the IC50 was determined as 4.88 nM and the “Maximum inhibition rate (%)” value came out at 99.7%. Also, in assay [5], the IC50 amounted to 0.61 nM and the “Maximum inhibition rate (%)” value was 81%.

B4: PR001572 (bispecific antibody, human IgG1, kappa)
chain 1: EVQLVESGGGLIQPGGSLRLSCAVSGFTVSKNYMSWVRQAPGKGLEWVSVVYSGGSKTYADSVKGRFTISRDNSKNTLYLQMNSLRAEDTAVYYCARAVPHSPSSFDIWGQGTMVTVSSKLEPKSSDKTHTPPPPPRTDIQMTQSPSTLSASVGDRVTVTCRASQSIYIWLAWYQQKPGKAPNLLIYKASSLETGVPSRFSGSGSGTEFTLTISSLQPDDFATYYCQQYYGSSRTFGQGTKVEIKRTVAAPSVFIFPPSDEQLKSGTASVVCLLNNFYPREAKVQWKVDNALQSGNSQESVTEQDSKDSTYSLSSTLTLSKADYEKHKVYACEVTHQGLSSPVTKSFNRGEC
chain 2: not shown
notes: PD-L1×CTLA4, structure 9 2×VH-IgG
B4: in assay [1], a half-maximal effect (EC50) was put at 2.91 nM and the “Maximum MFI” value is 434 MFI. For the same molecule, in assay [2], a half-maximal response (EC50) required 1.07 nM and the “Maximum MFI” value was found to be 5830 MFI. Besides, the “fold poorer IC50 than the parent monoclonal antibody” value in assay [3] is 4 to 6 fold. Also, in assay [4], the IC50 was determined as 2.98 nM and the “Maximum inhibition rate (%)” value was 100%. In assay [5], the IC50 is 1.4 nM and the “Maximum inhibition rate (%)” value turned out to be 80.7%.

B5: PR000401 (bispecific antibody, human IgG1, kappa, L234A L235A)
light: DIQMTQSPSTLSASVGDRVTVTCRASQSIYIWLAWYQQKPGKAPNLLIYKASSLETGVPSRFSGSGSGTEFTLTISSLQPDDFATYYCQQYYGSSRTFGQGTKVEIKRTVAAPSVFIFPPSDEQLKSGTASVVCLLNNFYPREAKVQWKVDNALQSGNSQESVTEQDSKDSTYSLSSTLTLSKADYEKHKVYACEVTHQGLSSPVTKSFNRGEC
chain: EVQLVESGGGLVQPGGSLRLSCAASGFTFSSYWMSWVRQAPGKGLEWVANIKQEGSEKYYVDSVKGRFTISRDNAKNSLYLQMNSLRAEDTAVYYCARDRAVAGAFDIWGQGTMVTVSSASTKGPSVFPLAPSSKSTSGGTAALGCLVKDYFPEPVTVSWNSGALTSGVHTFPAVLQSSGLYSLSSVVTVPSSSLGTQTYICNVNHKPSNTKVDKKVEPKSCDKTHTCPPCPAPEAAGGPSVFLFPPKPKDTLMISRTPEVTCVVVDVSHEDPEVKFNWYVDGVEVHNAKTKPREEQYNSTYRVVSVLTVLHQDWLNGKEYKCKVSNKALGAPIEKTISKAKGQPREPQVYTLPPSREEMTKNQVSLTCLVKGFYPSDIAVEWESNGQPENNYKTTPPVLDSDGSFFLYSKLTVDKSRWQQGNVFSCSVMHEALHNHYTQKSLSLSPGKLEPKSSDKTHTPPPPPRTEVQLVESGGGLIQPGGSLRLSCAVSGFTVSKNYMSWVRQAPGKGLEWVSVVYSGGSKTYADSVKGRFTISRDNSKNTLYLQMNSLRAEDTAVYYCARAVPHSPSSFDIWGQGTMVTVSS
notes: PD-L1×CTLA4, structure 5
Regarding B5, in assay [6], the EC50 stood at 0.288 nM and the “Maximum MFI” value turned out to be 994 MFI. In assay [7], the EC50 is 5.17 nM and the “Maximum MFI” value amounted to 1910 MFI.

B6: PR001609 (bispecific antibody, human IgG1, kappa)
light: DIQMTQSPSTLSASVGDRVTVTCRASQSIYIWLAWYQQKPGKAPNLLIYKASSLETGVPSRFSGSGSGTEFTLTISSLQPDDFATYYCQQYYGSSRTFGQGTKVEIKRTVAAPSVFIFPPSDEQLKSGTASVVCLLNNFYPREAKVQWKVDNALQSGNSQESVTEQDSKDSTYSLSSTLTLSKADYEKHKVYACEVTHQGLSSPVTKSFNRGEC
heavy: not shown
chain: EVQLVESGGGLIQPGGSLRLSCAVSGFTVSKNYMSWVRQAPGKGLEWVSVVYSGGSKTYADSVKGRFTISRDNSKNTLYLQMNSLRAEDTAVYYCARAVPHSPSSFDIWGQGTMVTVSSEPKSSDKTHTCPPCPAPELLGGPSVFLFPPKPKDTLMISRTPEVTCVVVDVSHEDPEVKFNWYVDGVEVHNAKTKPREEQYNSTYRVVSVLTVLHQDWLNGKEYKCKVSNKALPAPIEKTISKAKGQPREPQVCTLPPSREEMTKNQVSLSCAVKGFYPSDIAVEWESNGQPENNYKTTPPVLDSDGSFFLVSKLTVDKSRWQQGNVFSCSVMHEALHNHYTQKSLSLSPGK
notes: PD-L1×CTLA4, structure 11 Fab-Fc-VH, knob/hole
With B6, the “Maximum MFI” value in assay [1] worked out at 355 MFI; in assay [2], 11200 MFI. Besides, a half-maximal response in assay [2] (EC50) required 1.51 nM. For the same molecule, the “fold poorer IC50 than the parent monoclonal antibody” value in assay [3] was in the range of 4 to 5 fold. In addition, the results for the IC50 in assay [4] and in assay [5] were 98.3 nM and 1.12 nM, respectively. Besides, the “Maximum inhibition rate (%)” value in assay [4] was 95%; in assay [5], 81.6%.

B7: PR000402 (bispecific antibody, human IgG1, kappa, L234A L235A)
light: DIQMTQSPSTLSASVGDRVTVTCRASQSIYIWLAWYQQKPGKAPNLLIYKASSLETGVPSRFSGSGSGTEFTLTISSLQPDDFATYYCQQYYGSSRTFGQGTKVEIKRTVAAPSVFIFPPSDEQLKSGTASVVCLLNNFYPREAKVQWKVDNALQSGNSQESVTEQDSKDSTYSLSSTLTLSKADYEKHKVYACEVTHQGLSSPVTKSFNRGEC
chain: EVQLVESGGGLVQPGGSLRLSCAASGFTFSSYWMSWVRQAPGKGLEWVANIKQEGSEKYYVDSVKGRFTISRDNAKNSLYLQMNSLRAEDTAVYYCARDRAVAGAFDIWGQGTMVTVSSASTKGPSVFPLAPSSKSTSGGTAALGCLVKDYFPEPVTVSWNSGALTSGVHTFPAVLQSSGLYSLSSVVTVPSSSLGTQTYICNVNHKPSNTKVDKKVEPKSCDKTHTCPPCPAPEAAGGPSVFLFPPKPKDTLMISRTPEVTCVVVDVSHEDPEVKFNWYVDGVEVHNAKTKPREEQYNSTYRVVSVLTVLHQDWLNGKEYKCKVSNKALGAPIEKTISKAKGQPREPQVYTLPPSREEMTKNQVSLTCLVKGFYPSDIAVEWESNGQPENNYKTTPPVLDSDGSFFLYSKLTVDKSRWQQGNVFSCSVMHEALHNHYTQKSLSLSPGKLGGGGSGGGGSGGGGSRTEVQLVESGGGLIQPGGSLRLSCAVSGFTVSKNYMSWVRQAPGKGLEWVSVVYSGGSKTYADSVKGRFTISRDNSKNTLYLQMNSLRAEDTAVYYCARAVPHSPSSFDIWGQGTMVTVSS
notes: PD-L1×CTLA4, structure 5
B7: the concentration giving a half-maximal response (EC50) in assay [6] was 0.259 nM; in assay [7], 2.4 nM. In addition, the “Maximum MFI” value is 841 MFI in assay [6] and 1760 MFI in assay [7].
